Test [1] concerns the target T1, taxol-stabilized microtubules (tubulin) (Sus scrofa, UniProt P02550).
T1 chain 1: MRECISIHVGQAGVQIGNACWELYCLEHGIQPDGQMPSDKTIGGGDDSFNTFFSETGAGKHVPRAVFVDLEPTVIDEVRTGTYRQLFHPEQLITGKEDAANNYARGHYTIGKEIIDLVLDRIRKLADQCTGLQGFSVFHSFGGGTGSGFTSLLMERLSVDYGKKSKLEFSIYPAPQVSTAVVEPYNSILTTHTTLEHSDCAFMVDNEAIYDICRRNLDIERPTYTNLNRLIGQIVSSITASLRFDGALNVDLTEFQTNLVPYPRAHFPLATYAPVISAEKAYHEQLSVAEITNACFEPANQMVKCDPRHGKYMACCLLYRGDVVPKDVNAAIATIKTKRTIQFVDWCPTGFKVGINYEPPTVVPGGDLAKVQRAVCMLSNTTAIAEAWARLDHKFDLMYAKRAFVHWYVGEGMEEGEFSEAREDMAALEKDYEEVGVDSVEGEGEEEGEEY
T1 chain 2: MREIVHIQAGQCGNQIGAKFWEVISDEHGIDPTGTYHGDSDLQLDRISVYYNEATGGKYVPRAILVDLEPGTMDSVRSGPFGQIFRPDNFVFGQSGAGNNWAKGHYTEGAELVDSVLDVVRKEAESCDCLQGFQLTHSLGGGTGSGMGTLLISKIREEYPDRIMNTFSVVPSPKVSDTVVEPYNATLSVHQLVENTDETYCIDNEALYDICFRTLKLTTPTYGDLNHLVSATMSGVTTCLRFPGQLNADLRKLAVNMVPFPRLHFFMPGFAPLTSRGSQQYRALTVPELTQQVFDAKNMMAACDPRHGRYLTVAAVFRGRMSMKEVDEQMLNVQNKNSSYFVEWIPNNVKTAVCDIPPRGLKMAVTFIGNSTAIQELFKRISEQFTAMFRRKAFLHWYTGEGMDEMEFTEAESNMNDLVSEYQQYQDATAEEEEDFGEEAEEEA
Description: TIRF microscopy, Hill fit (no added salt).

Test [2] concerns the target T1, taxol-stabilized microtubules (tubulin). Kind of test: TIRF microscopy, Hill fit (150 mM salt).

B1: HURP 1-285 (protein)
chain: MSSSHFASRHRKDISTEMIRTKIAHRKSLSQKENRHKEYERNRHFGLKDVNIPTLEGRILVELDETSQGLVPEKTNVKPRAMKTILGDQRKQMLQKYKEEKQLQKLKEQREKAKRGIFKVGRYRPDMPCFLLSNQNAVKAEPKKAIPSSVRITRSKAKDQMEQTKIDNESDVRAIRPGPRQTSEKKVSDKEKKVVQPVMPTSLRMTRSATQAAKQVPRTVSSTTARKPVTRAANENEPEGKVPSKGRPAKNVETKPDKGISCKVDSEENTLNSQTNATSGMNPDG
modifications: C-terminal eGFP fusion, taxol-stabilized microtubules
Regarding B1, the Kd was roughly 29 nM in test [1] and roughly 300 nM in test [2].

Usually Kd stands for the concentration at which binding is half-saturated.

The values are drawn from article PMC11549086 (2024).
